B1: Matrilin-1 (Homo sapiens), P21941 (parent)
chain: MRVLSGTSLMLCSLLLLLQALCSPGLAPQSRGHLCRTRPTDLVFVVDSSRSVRPVEFEKVKVFLSQVIESLDVGPNATRVGMVNYASTVKQEFSLRAHVSKAALLQAVRRIQPLSTGTMTGLAIQFAITKAFGDAEGGRSRSPDISKVVIVVTDGRPQDSVQDVSARARASGVELFAIGVGSVDKATLRQIASEPQDEHVDYVESYSVIEKLSRKFQEAFCVVSDLCATGDHDCEQVCISSPGSYTCACHEGFTLNSDGKTCNVCSGGGGSSATDLVFLIDGSKSVRPENFELVKKFISQIVDTLDVSDKLAQVGLVQYSSSVRQEFPLGRFHTKKDIKAAVRNMSYMEKGTMTGAALKYLIDNSFTVSSGARPGAQKVGIVFTDGRSQDYINDAAKKAKDLGFKMFAVGVGNAVEDELREIASEPVAEHYFYTADFKTINQIGKKLQKKICVEEDPCACESLVKFQAKVEGLLQALTRKLEAVSKRLAILENTVV

Variants of: B1
Conditions: with co2a1_bovin COL2A1, P02459
co2a1_bovin COL2A1, P02459, sequence (P02459 whole entry): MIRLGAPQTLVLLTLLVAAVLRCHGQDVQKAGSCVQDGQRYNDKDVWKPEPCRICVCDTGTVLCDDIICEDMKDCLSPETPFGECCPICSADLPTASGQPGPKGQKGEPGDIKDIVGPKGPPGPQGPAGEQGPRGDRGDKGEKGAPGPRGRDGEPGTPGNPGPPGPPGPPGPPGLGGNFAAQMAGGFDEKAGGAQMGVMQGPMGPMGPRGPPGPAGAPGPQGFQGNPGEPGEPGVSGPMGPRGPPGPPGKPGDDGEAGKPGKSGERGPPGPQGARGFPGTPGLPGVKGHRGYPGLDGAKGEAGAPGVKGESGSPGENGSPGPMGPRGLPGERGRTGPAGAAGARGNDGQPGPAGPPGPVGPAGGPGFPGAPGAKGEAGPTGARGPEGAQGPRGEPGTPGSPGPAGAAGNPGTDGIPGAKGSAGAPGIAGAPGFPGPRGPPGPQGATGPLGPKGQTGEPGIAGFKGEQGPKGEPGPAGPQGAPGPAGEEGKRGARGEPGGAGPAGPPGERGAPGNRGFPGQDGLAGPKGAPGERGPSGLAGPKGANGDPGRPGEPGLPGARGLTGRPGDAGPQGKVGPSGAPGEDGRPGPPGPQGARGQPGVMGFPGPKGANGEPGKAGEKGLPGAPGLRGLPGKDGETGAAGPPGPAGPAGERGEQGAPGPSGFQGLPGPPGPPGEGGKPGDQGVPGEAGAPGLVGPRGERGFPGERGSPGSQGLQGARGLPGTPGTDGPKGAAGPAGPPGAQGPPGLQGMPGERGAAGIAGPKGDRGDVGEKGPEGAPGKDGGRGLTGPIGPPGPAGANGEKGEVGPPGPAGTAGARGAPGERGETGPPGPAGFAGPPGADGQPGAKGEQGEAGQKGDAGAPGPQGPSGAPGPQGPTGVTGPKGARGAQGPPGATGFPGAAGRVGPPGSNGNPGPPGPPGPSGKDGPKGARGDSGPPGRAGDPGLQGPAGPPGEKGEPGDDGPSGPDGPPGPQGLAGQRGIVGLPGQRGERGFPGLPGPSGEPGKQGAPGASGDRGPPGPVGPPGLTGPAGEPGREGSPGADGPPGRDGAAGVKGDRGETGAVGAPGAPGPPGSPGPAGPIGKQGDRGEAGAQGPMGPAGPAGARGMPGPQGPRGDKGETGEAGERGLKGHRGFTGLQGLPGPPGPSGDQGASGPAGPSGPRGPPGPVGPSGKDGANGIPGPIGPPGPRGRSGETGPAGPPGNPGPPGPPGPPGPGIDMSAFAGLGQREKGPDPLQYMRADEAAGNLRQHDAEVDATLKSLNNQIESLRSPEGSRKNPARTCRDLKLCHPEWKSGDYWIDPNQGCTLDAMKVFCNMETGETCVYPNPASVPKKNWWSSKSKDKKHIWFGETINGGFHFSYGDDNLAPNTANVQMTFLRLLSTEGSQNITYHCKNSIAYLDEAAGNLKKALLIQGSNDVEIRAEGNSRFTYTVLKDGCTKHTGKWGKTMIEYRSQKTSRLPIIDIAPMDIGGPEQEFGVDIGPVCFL

| Variant | effect of a mutation on the interaction |
| --- | --- |
| N76A | increasing interaction strength |

Variants of: B1
Conditions: with co2a1_bovin COL2A1, P02459
Remark: another data set of the same source

| Variant | effect of a mutation on the interaction |
| --- | --- |
| N344A | with no effect |
